According to US20120178908A1 (Novo Nordisk, published 2012):

Legend:
[1] = target: T1, TLT-1 18-188 relipidated in 20:80 PS:PC vesicles (human) (UniProt Q86YW5)
T1 sequence: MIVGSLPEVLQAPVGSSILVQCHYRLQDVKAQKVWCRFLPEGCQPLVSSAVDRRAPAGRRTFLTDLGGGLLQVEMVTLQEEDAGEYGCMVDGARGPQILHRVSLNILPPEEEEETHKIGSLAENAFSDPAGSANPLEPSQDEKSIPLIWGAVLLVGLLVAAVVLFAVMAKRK

[2] = target: T2, TLT-1 receptor on the surface of activated human platelets (human) (UniProt Q86YW5)
T2 sequence: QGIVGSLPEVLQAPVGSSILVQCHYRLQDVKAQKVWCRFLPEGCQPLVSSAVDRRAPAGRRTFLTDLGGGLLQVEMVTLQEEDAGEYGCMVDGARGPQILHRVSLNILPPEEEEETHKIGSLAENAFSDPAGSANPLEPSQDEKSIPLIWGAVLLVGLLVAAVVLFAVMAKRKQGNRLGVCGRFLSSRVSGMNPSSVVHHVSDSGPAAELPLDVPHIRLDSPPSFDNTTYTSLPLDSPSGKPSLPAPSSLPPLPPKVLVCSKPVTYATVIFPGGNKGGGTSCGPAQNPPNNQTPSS

B1: Fab 0012-VH-CH1-L0-TF;LC-HPC4 (protein)
VH-CH1-TF, no linker: EVKLLESGGGLVQPGGSLKLSCAASGFDFSRYWMTWVRQAPGKGLEWIGEINPDSSTINYTPSLKDKFIISRDNAKNTLYLQMSEVRSEDTALYYCASGVFTSWGQGTLVTVSAASTKGPSVFPLAPCSRSTSESTAALGCLVKDYFPEPVTVSWNSGALTSGVHTFPAVLQSSGLYSLSSVVTVPSSSLGTKTYTCNVDHKPSNTKVDKRVESKSGTTNTVAAYNLTWKSTNFKTILEWEPKPVNQVYTVQISTKSGDWKSKCFYTTDTECDLTDEIVKDVKQTYLARVFSYPAGNVESTGSAGEPLYENSPEFTPYLETNLGQPTIQSFEQVGTKVNVTVEDERTLVRRNNTFLSLRDVFGKDLIYTLYYWKSSSSGKKTAKTNTNEFLIDVDKGENYCFSVQAVIPSRTVNRKSTDSPVECMGQEKGEFRE
light chain-HPC4: DVVMTQTPLSLPVSLGDQASISCRSSQSLVHRNGNTYFHWCLQKPGQSPKLLIYKVSNRFSGVPDRFSGSGSGTDFTLKISRVEAEDLGVYFCSQSTHVPYTFGGGTKLEIKRTVAAPSVFIFPPSDEQLKSGTASVVCLLNNFYPREAKVQWKVDNALQSGNSQESVTEQDSKDSTYSLSSTLTLSKADYEKHKVYACEVTHQGLSSPVTKSFNRGECEDQVDPRLIDGK
B1 showed an FVII-mediated FXa generation % Activity lipidated TLT-1 [1] of 98%, an FVIIa-mediated FXa generation % Activity lipidated TLT-1 [1] of 106% and an FVII-mediated FXa generation % Activity activated plts (n 4) [2] of 71%. It also gave an FVIIa-mediated FXa generation % Activity activated plts (n 4) [2] of 80%.

B2: Fab 0012-TF-L4b-VH-CH1;LC-HPC4 (protein)
TF-linker-VH-CH1: SGTTNTVAAYNLTWKSTNFKTILEWEPKPVNQVYTVQISTKSGDWKSKCFYTTDTECDLTDEIVKDVKQTYLARVFSYPAGNVESTGSAGEPLYENSPEFTPYLETNLGQPTIQSFEQVGTKVNVTVEDERTLVRRNNTFLSLRDVFGKDLIYTLYYWKSSSSGKKTAKTNTNEFLIDVDKGENYCFSVQAVIPSRTVNRKSTDSPVECMGQEKGEFREGGGGSGGGGSGGGGSGSEVKLLESGGGLVQPGGSLKLSCAASGFDFSRYWMTWVRQAPGKGLEWIGEINPDSSTINYTPSLKDKFIISRDNAKNTLYLQMSEVRSEDTALYYCASGVFTSWGQGTLVTVSAASTKGPSVFPLAPCSRSTSESTAALGCLVKDYFPEPVTVSWNSGALTSGVHTFPAVLQSSGLYSLSSVVTVPSSSLGTKTYTCNVDHKPSNTKVDKRVESK
light chain-HPC4: B1 light chain-HPC4
B2 was tested, and the FVII-mediated FXa generation % Activity lipidated TLT-1 [1] was 0%, the FVIIa-mediated FXa generation % Activity lipidated TLT-1 [1] was 0% and the FVII-mediated FXa generation % Activity activated plts (n 1) [2] was 5%. For the same binder, the FVIIa-mediated FXa generation % Activity activated plts (n 2) [2] was 5%.

B3: Fab 0012-VH-CH1-L10-TF;LC-HPC4 (protein)
VH-CH1-linker-TF: EVKLLESGGGLVQPGGSLKLSCAASGFDFSRYWMTWVRQAPGKGLEWIGEINPDSSTINYTPSLKDKFIISRDNAKNTLYLQMSEVRSEDTALYYCASGVFTSWGQGTLVTVSAASTKGPSVFPLAPCSRSTSESTAALGCLVKDYFPEPVTVSWNSGALTSGVHTFPAVLQSSGLYSLSSVVTVPSSSLGTKTYTCNVDHKPSNTKVDKRVESKYGPPSPSSPAPEFLGGSGTTNTVAAYNLTWKSTNFKTILEWEPKPVNQVYTVQISTKSGDWKSKCFYTTDTECDLTDEIVKDVKQTYLARVFSYPAGNVESTGSAGEPLYENSPEFTPYLETNLGQPTIQSFEQVGTKVNVTVEDERTLVRRNNTFLSLRDVFGKDLIYTLYYWKSSSSGKKTAKTNTNEFLIDVDKGENYCFSVQAVIPSRTVNRKSTDSPVECMGQEKGEFRE
light chain-HPC4: B1 light chain-HPC4
In the case of B3, the FVII-mediated FXa generation % Activity lipidated TLT-1 [1] is reported as 87%, the FVIIa-mediated FXa generation % Activity lipidated TLT-1 [1] is reported as 93% and the FVII-mediated FXa generation % Activity activated plts (n 2) [2] is reported as 78%. The FVIIa-mediated FXa generation % Activity activated plts (n 2) [2] was 81%.

B4: Fab 0012-LC-L1-TF;VH-CH1-HPC4 (protein)
light chain-linker-TF: DVVMTQTPLSLPVSLGDQASISCRSSQSLVHRNGNTYFHWCLQKPGQSPKLLIYKVSNRFSGVPDRFSGSGSGTDFTLKISRVEAEDLGVYFCSQSTHVPYTFGGGTKLEIKRTVAAPSVFIFPPSDEQLKSGTASVVCLLNNFYPREAKVQWKVDNALQSGNSQESVTEQDSKDSTYSLSSTLTLSKADYEKHKVYACEVTHQGLSSPVTKSFNRGECGSSGTTNTVAAYNLTWKSTNFKTILEWEPKPVNQVYTVQISTKSGDWKSKCFYTTDTECDLTDEIVKDVKQTYLARVFSYPAGNVESTGSAGEPLYENSPEFTPYLETNLGQPTIQSFEQVGTKVNVTVEDERTLVRRNNTFLSLRDVFGKDLIYTLYYWKSSSSGKKTAKTNTNEFLIDVDKGENYCFSVQAVIPSRTVNRKSTDSPVECMGQEKGEFRE
VH-CH1-HPC4: EVKLLESGGGLVQPGGSLKLSCAASGFDFSRYWMTWVRQAPGKGLEWIGEINPDSSTINYTPSLKDKFIISRDNAKNTLYLQMSEVRSEDTALYYCASGVFTSWGQGTLVTVSAASTKGPSVFPLAPCSRSTSESTAALGCLVKDYFPEPVTVSWNSGALTSGVHTFPAVLQSSGLYSLSSVVTVPSSSLGTKTYTCNVDHKPSNTKVDKRVESKEDQVDPRLIDGK
B4 was tested, and the FVII-mediated FXa generation % Activity lipidated TLT-1 [1] was 97%, the FVIIa-mediated FXa generation % Activity lipidated TLT-1 [1] was 101% and the FVII-mediated FXa generation % Activity activated plts (n 4) [2] was 111%. For the same binder, the FVIIa-mediated FXa generation % Activity activated plts (n 1) [2] was 125%.

B5: Fab 0012-LC-L2-TF;VH-CH1-HPC4 (protein)
light chain-linker-TF: DVVMTQTPLSLPVSLGDQASISCRSSQSLVHRNGNTYFHWCLQKPGQSPKLLIYKVSNRFSGVPDRFSGSGSGTDFTLKISRVEAEDLGVYFCSQSTHVPYTFGGGTKLEIKRTVAAPSVFIFPPSDEQLKSGTASVVCLLNNFYPREAKVQWKVDNALQSGNSQESVTEQDSKDSTYSLSSTLTLSKADYEKHKVYACEVTHQGLSSPVTKSFNRGECGSGGGGSSGTTNTVAAYNLTWKSTNFKTILEWEPKPVNQVYTVQISTKSGDWKSKCFYTTDTECDLTDEIVKDVKQTYLARVFSYPAGNVESTGSAGEPLYENSPEFTPYLETNLGQPTIQSFEQVGTKVNVTVEDERTLVRRNNTFLSLRDVFGKDLIYTLYYWKSSSSGKKTAKTNTNEFLIDVDKGENYCFSVQAVIPSRTVNRKSTDSPVECMGQEKGEFRE
VH-CH1-HPC4: B4 VH-CH1-HPC4
B5 gave an FVII-mediated FXa generation % Activity lipidated TLT-1 [1] of 96%, an FVIIa-mediated FXa generation % Activity lipidated TLT-1 [1] of 106% and an FVII-mediated FXa generation % Activity activated plts (n 4) [2] of 96%. For the same binder, the FVIIa-mediated FXa generation % Activity activated plts (n 1) [2] was 112%.

B6: Fab 0012-LC-L3-TF;VH-CH1-HPC4 (protein)
light chain-linker-TF: DVVMTQTPLSLPVSLGDQASISCRSSQSLVHRNGNTYFHWCLQKPGQSPKLLIYKVSNRFSGVPDRFSGSGSGTDFTLKISRVEAEDLGVYFCSQSTHVPYTFGGGTKLEIKRTVAAPSVFIFPPSDEQLKSGTASVVCLLNNFYPREAKVQWKVDNALQSGNSQESVTEQDSKDSTYSLSSTLTLSKADYEKHKVYACEVTHQGLSSPVTKSFNRGECGSGGGGSGGGGSSGTTNTVAAYNLTWKSTNFKTILEWEPKPVNQVYTVQISTKSGDWKSKCFYTTDTECDLTDEIVKDVKQTYLARVFSYPAGNVESTGSAGEPLYENSPEFTPYLETNLGQPTIQSFEQVGTKVNVTVEDERTLVRRNNTFLSLRDVFGKDLIYTLYYWKSSSSGKKTAKTNTNEFLIDVDKGENYCFSVQAVIPSRTVNRKSTDSPVECMGQEKGEFRE
VH-CH1-HPC4: B4 VH-CH1-HPC4
B6 was tested, and the FVII-mediated FXa generation % Activity lipidated TLT-1 [1] was 98%, the FVIIa-mediated FXa generation % Activity lipidated TLT-1 [1] was 105% and the FVII-mediated FXa generation % Activity activated plts (n 1) [2] was 98%. It also gave an FVIIa-mediated FXa generation % Activity activated plts (n 1) [2] of 97%.
